Laboratory results taken from patent US20230189818A1, “RNA-BASED CONTROL OF BOTRYTIS” (priority 2021, published 2023).

B1: GS2640: dsRNA trigger targeting B. cinerea Bcsec15 (XM_024692064.1); trigger SEQ ID NO 50, RNA 54, reverse complement 58 (nucleic acid, listed as Botrytis cinerea)
sense: AAAUUCAGCACAGAUUUUCAACAGAUUGUGUCUACCGAUGAAUACAUGCCUAUGCCUGUCAAUAGCGAAGAAGACUUUGAUAAAAUCAUUCAAGUCAGUUGGUAUGUUCCGGACAGACCGAAAGAAGAAUACACAUUCCCCGGUGUAUUACCAUUCUCCCAGAUGUACCCAAUGUGCUGUAUAGAUAUCAGAAAUUUCCUGAAUCGAUUCUACUUCAUAAUGGAUGAUCAUUUUCAACAGCCAAACAUUAUUGAUGAGACACUUAAGAAGUCGAUAGAUGAGCUUCUGUCUGAGGAUAUUU
antisense: AAAUAUCCUCAGACAGAAGCUCAUCUAUCGACUUCUUAAGUGUCUCAUCAAUAAUGUUUGGCUGUUGAAAAUGAUCAUCCAUUAUGAAGUAGAAUCGAUUCAGGAAAUUUCUGAUAUCUAUACAGCACAUUGGGUACAUCUGGGAGAAUGGUAAUACACCGGGGAAUGUGUAUUCUUCUUUCGGUCUGUCCGGAACAUACCAACUGACUUGAAUGAUUUUAUCAAAGUCUUCUUCGCUAUUGACAGGCAUAGGCAUGUAUUCAUCGGUAGACACAAUCUGUUGAAAAUCUGUGCUGAAUUU
B2: GS2291: dsRNA trigger targeting B. cinerea Bcgpi2 (XM_024693470.1); trigger SEQ ID NO 22, RNA 34, reverse complement 46 (nucleic acid, listed as Botrytis cinerea)
sense: CUGUCAACCAAUUGCGCAUGACAAAUGGAGAUGCUGGACGAUUAAGAAGUAGAGGAAGACAUGCUGAUAGAACGAAGAGUAGCACCAGAAGACGGAAAACUACUUGGAAAAAGCUGCUAUGGGUGAAGCAAUCAUAUCCAGACAAUUACACGGAUCAAGAUACAUUUCUCGAACAUCUGCAGCGAAAUCCACGUCUUCAGCCUUACGACUUUUGGCCAUUGGUAGCAGAUUCCACGGUUAUAGUACAACACGUUUGUUCGGUCAUUAUAUUCAUUGUUUCUUUCGUUGGGAUAUAUGAUAAACAUGUCUCGCCAGUUUCUGUGGUUGGCUGGGGCUCUAUUGCUACCUUUUUGGGGUGGGUGUUAUGGGAUUUAUGGGUGGGACAGGAAGAAAGUACUCGUCCAGCAUUUCCACCACCGCAGCCUUUCUCUCACAGUGUAUCUGCAACAAGUUCAACACCAAACCUAUUGGCAACAGCUGCAAGUGGGCCAAGGCAAUCCUACUCGAUGUCAACAACAUCUCUUCAAUCUACAGCCUCGAAUCUAACCCAACCACCUCCAAUACGACCGGUUUAUACACCACAUAAUU
antisense: AAUUAUGUGGUGUAUAAACCGGUCGUAUUGGAGGUGGUUGGGUUAGAUUCGAGGCUGUAGAUUGAAGAGAUGUUGUUGACAUCGAGUAGGAUUGCCUUGGCCCACUUGCAGCUGUUGCCAAUAGGUUUGGUGUUGAACUUGUUGCAGAUACACUGUGAGAGAAAGGCUGCGGUGGUGGAAAUGCUGGACGAGUACUUUCUUCCUGUCCCACCCAUAAAUCCCAUAACACCCACCCCAAAAAGGUAGCAAUAGAGCCCCAGCCAACCACAGAAACUGGCGAGACAUGUUUAUCAUAUAUCCCAACGAAAGAAACAAUGAAUAUAAUGACCGAACAAACGUGUUGUACUAUAACCGUGGAAUCUGCUACCAAUGGCCAAAAGUCGUAAGGCUGAAGACGUGGAUUUCGCUGCAGAUGUUCGAGAAAUGUAUCUUGAUCCGUGUAAUUGUCUGGAUAUGAUUGCUUCACCCAUAGCAGCUUUUUCCAAGUAGUUUUCCGUCUUCUGGUGCUACUCUUCGUUCUAUCAGCAUGUCUUCCUCUACUUCUUAAUCGUCCAGCAUCUCCAUUUGUCAUGCGCAAUUGGUUGACAG
B3: GS2589: dsRNA trigger targeting B. cinerea Bcsec15 (XM_024692064.1); trigger SEQ ID NO 49, RNA 53, reverse complement 57 (nucleic acid, listed as Botrytis cinerea)
sense: GGUAUGUUCCGGACAGACCGAAAGAAGAAUACACAUUCCCCGGUGUAUUACCAUUCUCCCAGAUGUACCCAAUGUGCUGUAUAGAUAUCAGAAAUUUCCUGAAUCGAUUCUACUUCAUAAUGGAUGAUCAUUUUCAACAGCCAAACAUUAUUGAUGAGACACUUAAGAAGUCGAUAGAUGAGCUUCUGUCUGAGGAUAUUU
antisense: AAAUAUCCUCAGACAGAAGCUCAUCUAUCGACUUCUUAAGUGUCUCAUCAAUAAUGUUUGGCUGUUGAAAAUGAUCAUCCAUUAUGAAGUAGAAUCGAUUCAGGAAAUUUCUGAUAUCUAUACAGCACAUUGGGUACAUCUGGGAGAAUGGUAAUACACCGGGGAAUGUGUAUUCUUCUUUCGGUCUGUCCGGAACAUACC
B4: GS2641: dsRNA trigger targeting B. cinerea Bcsec15 (XM_024692064.1); trigger SEQ ID NO 51, RNA 55, reverse complement 59 (nucleic acid, listed as Botrytis cinerea)
sense: CAAACAAUGGAGGGUUGGGGAUAUUCAGUUGCCAUAUUAGAUGCUUAUGUGCUUAAGCUUUUCUAUAGAUAUGCUGAUUUGUUAAAACGGAAAUUCAGCACAGAUUUUCAACAGAUUGUGUCUACCGAUGAAUACAUGCCUAUGCCUGUCAAUAGCGAAGAAGACUUUGAUAAAAUCAUUCAAGUCAGUUGGUAUGUUCCGGACAGACCGAAAGAAGAAUACACAUUCCCCGGUGUAUUACCAUUCUCCCAGAUGUACCCAAUGUGCUGUAUAGAUAUCAGAAAUUUCCUGAAUCGAUUCUACUUCAUAAUGGAUGAUCAUUUUCAACAGCCAAACAUUAUUGAUGAGACACUUAAGAAGUCGAUAGAUGAGCUUCUGUCUGAGGAUAUUU
antisense: AAAUAUCCUCAGACAGAAGCUCAUCUAUCGACUUCUUAAGUGUCUCAUCAAUAAUGUUUGGCUGUUGAAAAUGAUCAUCCAUUAUGAAGUAGAAUCGAUUCAGGAAAUUUCUGAUAUCUAUACAGCACAUUGGGUACAUCUGGGAGAAUGGUAAUACACCGGGGAAUGUGUAUUCUUCUUUCGGUCUGUCCGGAACAUACCAACUGACUUGAAUGAUUUUAUCAAAGUCUUCUUCGCUAUUGACAGGCAUAGGCAUGUAUUCAUCGGUAGACACAAUCUGUUGAAAAUCUGUGCUGAAUUUCCGUUUUAACAAAUCAGCAUAUCUAUAGAAAAGCUUAAGCACAUAAGCAUCUAAUAUGGCAACUGAAUAUCCCCAACCCUCCAUUGUUUG

Experiments:
[1] = test system: Botrytis cinerea isolate (B05.10); experiment: Detached leaf assay (tomato leaflets, lesion size); type: in vivo; conditions: five days post inoculation, vs untreated inoculated control
Protocol: Plant tissue. Tomato plants, variety Brandywine, were grown in the greenhouse for 3 weeks before harvesting the first true leaves for assays. Nodes 2-4 were prioritized for harvest and only lateral leaflets were used for assays. Leaflets of approximately the same size were used each week and were randomized among treatments. Detached leaflets were immediately brought into the lab for treatment and used within 4 hours of harvest. Detached leaflets were kept at 4° C. until they were treated and placed onto a 1% water agar medium for incubation.
Fungal culture. A Botrytis cinerea isolate (B05.10) was preserved on silica for long-term storage and pulled from these tubes stored at 4° C. for growth on a nutritive medium. Three pellets of silica were added to the center of a Malt Extract Agar (MEA) agar plate and grown at room temperature without parafilm/tape seal for ˜14 days, or until abundant conidia formation, before use.
Treatment of leaflets. Leaflets were treated 24 hours before inoculation and applied using an atomizer to get a fine mist of small droplets entirely covering the leaflet. Silwet L-77 was used as a spreader and added for a 0.03% final concentration (Silwet L-77 brand Phyto Technology Laboratories, S7777 Lot #14D7777001 F). The inoculated control was sprayed with the same volume of sterile DI water with Silwet L-77 in the absence of fungicide or experimental material. Leaflets were spray treated by laying them on a paper towel and holding the atomizer ˜6″ away from the leaflet for applications. Treated leaves were placed on a 1% water agar (10 g Bacto Agar, Difco, in 1 L deionized water, sterilized for 30 minutes at 121° C. and poured when reached a temp of 55° C. into 100×20 mm Petri dishes), with lids of the Petri dishes placed back on before putting Petri dishes under plastic bags to maintain humidity before inoculation the following day. Petri dishes of treated leaflets were left on the lab counter until the following day. Each treatment was replicated ten times with each replicate being a single treated leaflet with two inoculation sites, one on each side of the leaf midvein.
Inoculation. The conidial suspension was prepared by pouring a 7% white grape juice solution onto the culture plate, then scraping the plate with a sterile spatula to dislodge the spores and mycelia. The grape juice solution was prepared by mixing Welch's brand organic white grape juice into sterile deionized water. After dislodging the spores and mycelia of the culture, the suspension was poured through two layers of cheesecloth to remove fungal mycelia and catch the conidial suspension in a clean 50 mL conical tube. Approximately 3 uL of TWEEN 20 was added to conidial suspension to prevent sticking to conical tube. The spore concentration was determined using a Neubauer Improved hemocytometer and inoculum was diluted with more 7% grape juice until a spore concentration of 1×10^5 conidia/mL was reached. Inoculum was used to inoculate host tissue within 2 hours of preparation. Each tomato leaflet was inoculated twice, with inoculation sites placed one per side of the leaflet midvein. A 10 μL volume of spore suspension was placed at each inoculation site using a repeater pipette. Special care was taken not to touch the tip to leaflet surface to avoid contamination between treatments.
Incubation. Petri dishes were placed on lunch trays 6 plates high and moved to an incubator. The incubator was humidity controlled and holds at ˜75% relative humidity. The incubator was kept on 12/12 light/dark days and is set to a temperature of 23° C.
Rating. Measurements were taken at five days post inoculation (DPI). Each lesion that developed was measured using electronic calipers in 2 directions perpendicular to each other to help determine lesion diameter.
Data analysis. Data was analyzed using the SAS JMP statistical program (version 13.2.1) with comparisons made to the untreated, inoculated control. […]

Botrytis cinerea conidia = experiment: In vitro liquid-based assay (fungal biomass, 96-well plates, Cytation 5); type: cell-based; conditions: co-incubated with conidia for three days, vs untreated control
Protocol: Fungal culture. The Botrytis cinerea was plated each week the culture onto Malt Extract Agar (MEA) from long-term storage on silica stored at 4° C. Three pellets of silica were added to the center of a MEA agar plate and grown at room temperature without parafilm/tape seal for 10-14 days before use; a culture 12 days old was typically used.
Spore and media preparation. A pure culture of B. cinerea was flooded with a 0.01% Triton x-100 solution and conidia scraped free with a sterile hockey stick. The suspension was transferred to two, 1.5 mL centrifuge tubes and centrifuged at 8000 rpm for two minutes. The supernatant was discarded, pelleted spores washed twice with sterile water, then resuspended in sterile water. Conidia were quantified using a hemacytometer and diluted to a final concentration of 5000 conidia/mL stock. A stock solution of 1.25× minimal media was prepared for the assay setup using the components below. Once the stock solution was made, the pH was adjusted to 6.0 using NaOH or KOH, then filter sterilized through a 0.2 um filter tower and vacuum pump and stored at 4° C. The Kao & Michayluk Vitamins (100×) is a filter sterilized stock solution. The stock contains vitamins and amino acids as described by Kao & Michayluk. After filter sterilization, 20 mg of 4-Aminobenzoic acid in 100 ml of solution was added.
Experimental setup. Screening assays were setup in 96-well plates with conidia co-incubated with treatments (controls and dsRNAs) for three days before determining fungal biomass. Each treatment was replicated eight times within a single plate. In each well consisted of 12.5 μl of conidia suspension, 25 μl of the treatment, 12.5 μl of sterile deionized water, and 200 μl of minimal media. Each plate was covered with a breath right film and placed in the percival growth chamber at 23° C. on the shaking platform set to 120 RPM with 24-hour lighting. Plates were incubated for 72 hours before determining fungal growth.
Reading assay plate. Fungal biomass was determined by reading plates with the Cytation 5 machine. The program was set to compile 8 photo slices per well under brightfield microscopy with a 2.5× lens to measure biomass.
Data analysis. Analysis will automatically run on Cytation5 to determine final biomass.
Results are shown in Table 1B representing the average reduction in biomass vs. control for tested sequences across several runs described above.

| Molecule | Average % Reduction in Lesion Size ([1]; 30 ppm) | Average % Reduction in Lesion Size ([1]; 50 ppm) | Average % Reduction in Biomass (Botrytis cinerea conidia; 25 ppm dsRNA) | Average % Reduction in Biomass (Botrytis cinerea conidia; 150 ppm dsRNA) |
| --- | --- | --- | --- | --- |
| B1 | 19.63% | 22.76% | 24% | 54% |
| B2 | 28.77% | 46.11% | 5% | 24% |
| B3 | – | – | 20% | 39% |
| B4 | 15.75% | 30.49% | 14% | 37% |
